Positions count from the first letter of the chain named. One block for each binder: values may come before it.
How the values were obtained:
[1] = target: T1, human Siglec-10 expressed on CHO cells (human, UniProt Q96LC7 17-697); experiment: flow cytometry on Siglec-10 expressing CHO cells
T1 construct: NCBI NP_149121 is printed; also called huSiglec-10; Siglec-10 CHO transfectants
T1 sequence: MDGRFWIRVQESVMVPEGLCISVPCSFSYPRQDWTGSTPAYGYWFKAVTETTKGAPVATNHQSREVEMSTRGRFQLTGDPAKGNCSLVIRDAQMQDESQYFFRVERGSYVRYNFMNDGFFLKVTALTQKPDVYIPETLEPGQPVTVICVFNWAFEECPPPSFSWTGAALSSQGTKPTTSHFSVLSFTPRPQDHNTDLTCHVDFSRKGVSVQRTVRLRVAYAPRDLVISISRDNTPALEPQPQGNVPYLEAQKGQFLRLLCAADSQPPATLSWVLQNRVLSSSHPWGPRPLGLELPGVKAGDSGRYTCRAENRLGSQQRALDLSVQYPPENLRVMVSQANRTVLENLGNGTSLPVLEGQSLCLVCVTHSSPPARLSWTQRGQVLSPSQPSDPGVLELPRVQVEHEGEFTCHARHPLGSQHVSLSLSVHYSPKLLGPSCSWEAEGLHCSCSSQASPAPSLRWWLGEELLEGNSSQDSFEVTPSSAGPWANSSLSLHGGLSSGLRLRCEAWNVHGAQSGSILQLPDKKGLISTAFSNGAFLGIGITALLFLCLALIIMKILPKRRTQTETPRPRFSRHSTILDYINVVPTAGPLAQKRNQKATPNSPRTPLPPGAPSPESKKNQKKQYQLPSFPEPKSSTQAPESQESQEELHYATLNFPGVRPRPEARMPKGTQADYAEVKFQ

[2] = target: T2, human Siglec-7 expressed on CHO cells (human, UniProt Q9Y286 19-467); experiment: flow cytometry on CHO transfectants
T2 construct: NCBI NP_055200.1 is printed; also called Siglec-7 CHO transfectants
Description: (§1) Cells expressing Siglec-3, -5, -6, -7, -8, -9, -11 and -12 were generated using the amino acid sequences and Genbank references for Siglec polypeptides shown below in Table 2. Anti-Siglec-10 antibodies are tested by flow cytometry for binding to the cells. Binding of antibodies on human Siglec-10 was tested by flow cytometry on CHO cells transfected with human Siglec-10, human Siglec-7 or human Siglec-11. Cells were incubated 1h in Staining Buffer (SB) with primary antibodies at 8 ug/ml, then were washed three times with SB. Secondary Goat F(ab′)2 Anti-Human IgG (Fc) PE (Beckman Coulter) was incubated for 30 min at 4° C., cells were washed twice with SB. […] The 6 antibodies bound human Siglec-10 CHO transfectants with high differential in binding affinity over the control Siglec-7 or Siglec-11 CHO transfectants (no or only low residual binding to Siglec-7 or Siglec-11). […] The EC₅₀ as determined by flow cytometry for binding for S10-A antibody to Siglec-10 expressing CHO cells was 0.1 μg/ml.

[3] = target: T1, human Siglec-10 expressed on CHO cells; experiment: flow cytometry on CHO transfectants, antibodies at 8 ug/ml
Description: as §1

T2 sequence (Q9Y286 19-467): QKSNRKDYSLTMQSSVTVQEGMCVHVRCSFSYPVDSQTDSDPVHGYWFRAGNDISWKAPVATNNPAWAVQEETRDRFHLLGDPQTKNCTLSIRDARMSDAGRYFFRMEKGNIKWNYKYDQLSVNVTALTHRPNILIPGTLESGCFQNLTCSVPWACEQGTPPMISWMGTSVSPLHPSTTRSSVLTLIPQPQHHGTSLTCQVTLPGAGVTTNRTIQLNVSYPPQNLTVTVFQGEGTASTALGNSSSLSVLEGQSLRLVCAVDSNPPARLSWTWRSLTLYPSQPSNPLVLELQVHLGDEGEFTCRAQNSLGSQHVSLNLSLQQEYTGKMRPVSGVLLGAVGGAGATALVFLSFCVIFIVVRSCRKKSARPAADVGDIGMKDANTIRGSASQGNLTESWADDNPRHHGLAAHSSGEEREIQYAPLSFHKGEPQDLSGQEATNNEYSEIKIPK

EC50 [1]: 0.1 µg/mL
binding result [2]: no binding (tested: 8 ug/ml)
B1: antibody S10-A (antibody, human IgG1, V domains shown)
VH: QIQLQQSGAELEKPGASVKMSCKASGYTFTSYWMHWVKQRPGQGLEWIGYINPDTDSTEYNQKFRDKATLTADKSSSTAYMQLSSLTSEDSAVYYCARPYYRYAGYAMDYWGQGTSVTVSS
VL: DIKMTQSPSSMYASLGERVTITCKASQDINSYLSWFQQKPGKSPKTLIYRANRLVDGVPSRFSGSGSGQVYSLTISSLEYEDLGIYYCLQYDEFPWTFGGGTKLEIKR
notes: also called CHS2-S10-A

binding result [3]: binds
binding result [2]: no binding (tested: 8 ug/ml)
B2: antibody S10-B (antibody, human IgG1, V domains shown)
VH: QVQLKESGPGLVAPSQSLSITCTVSGFSLTDYDVNWVRQPPGKGLEWLGMIWGDGITDYNSALKSRLSISKDNSKSQVFLEMNSLQTDDTARYYCARGGIYYFGNTYGYWFFDVWGAGTTVTVSS
VL: DIVMTQSPSSLAVSTGEKVTMSCKSSQSLLNSRTRKNYLAWYQQKPGQSPKLLIYWASTRESGVPDRFTGSGSGTDFTLTISSVQAEDLAVYYCKQSYNLRTFGGGTKLEIKR
notes: also called CHS2-S10-B

binding result [3]: binds
binding result [2]: no binding (tested: 8 ug/ml)
B3: antibody S10-C (antibody, human IgG1, V domains shown)
VH: B2 VH
VL: B2 VL with D1E, V3L, M4L
notes: also called CHS2-S10-C

Reference: US20180344829A1 (INNATE PHARMA, published 2018)
